Measurements reported in publication PMC6711530, “Identification of zinc and Zur-regulated genes in Corynebacterium diphtheriae”.

T1: Zur (zinc uptake regulator) (Corynebacterium diphtheriae (strain of …, UniProt Q6NG23 1-142))
T1 sequence: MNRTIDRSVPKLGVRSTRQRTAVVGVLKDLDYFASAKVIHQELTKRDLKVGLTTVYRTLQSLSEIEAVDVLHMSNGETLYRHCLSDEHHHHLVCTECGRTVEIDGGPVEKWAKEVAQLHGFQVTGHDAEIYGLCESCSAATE

B1: cmrA (dip2325) site (dsDNA)
DNA 1: CCCAATTATCGGTAATTATTTTCATTAAAAGGG
DNA 2: CCCTTTTAATGAAAATAATTACCGATAATTGGG
B2: iutA (dip0169) DtxR binding site (dsDNA)
DNA 1: CCCTGTTTTAGCTTAGCCCTAGCTAATTTGGGG
DNA 2: CCCCAAATTAGCTAGGGCTAAGCTAAAACAGGG
B3: cztA (dip1101) site 2 (dsDNA)
DNA 1: GGGCATAAATGAAAATATGGGCTATGCTGCCCC
DNA 2: GGGGCAGCATAGCCCATATTTTCATTTATGCCC
B4: cztA (dip1101) site 1 (dsDNA)
DNA 1: GGGTATCAGTACACATTATTTTCAATAAAGCCC
DNA 2: GGGCTTTATTGAAAATAATGTGTACTGATACCC
B5: adhA (dip2114) site (dsDNA)
DNA 1: CCCTTCTAATGGTACCTATTTTCAATAGGTGGG
DNA 2: CCCACCTATTGAAAATAGGTACCATTAGAAGGG

Columns and labels:
[1] = target: T1, Zur (zinc uptake regulator); assay: EMSA; 250 uM EDTA; 100 nM Zur, 1 nM oligo duplex; 10 mM Tris pH 7.5, 55 mM KCl, 1 mM DTT, 10% glycerol, 0.05% NP-40, 100 ug/ml BSA, 0.03 ug/ml salmon sperm DNA, 5 uM ZnCl2 (or Zn/EDTA titration 0.25-250 uM); temperature not stated; conditions: protein: recombinant; tags: His-tag (pET30a); chain copies: 2; label: 5' biotin on strand 1; blunt
[2] = target: T1, Zur (zinc uptake regulator); assay: EMSA; 5 uM ZnCl2; 100 nM Zur, 1 nM oligo duplex; 10 mM Tris pH 7.5, 55 mM KCl, 1 mM DTT, 10% glycerol, 0.05% NP-40, 100 ug/ml BSA, 0.03 ug/ml salmon sperm DNA, 5 uM ZnCl2 (or Zn/EDTA titration 0.25-250 uM); temperature not stated; conditions: protein: recombinant; tags: His-tag (pET30a); chain copies: 2; label: 5' biotin on strand 1; blunt

| Binder | binding result [1] | binding result [2] |
| --- | --- | --- |
| B1 | binds |  |
| B2 |  | no binding |
| B3 |  | binds |
| B4 |  | binds |
| B5 | binds |  |
